Our source for the Kd values is paper doi:10.1101/2022.09.14.507982.

One may read the Kd as the concentration at which binding is half-saturated.

For the assay, the target named is F-actin (filamentous actin from rabbit muscle) (rabbit) (UniProt P68135). As to the kind of experiment: co-sedimentation.

As to “Ig3 domain of palladin (domain or fragment)”, the Kd was 3.42 µM.
